Like-named read-outs stand apart in the source and are kept apart here.

Test [1] deals with HLA-A2.1 on TAP-deficient T2 cells (human). Particulars: remark: other sources report otherwise.
For test [2] the target is unchanged. In words: T2 cell HLA-A2.1 stabilisation assay, flow cytometry with BB7.2. Background: A flow cytometer gives signals particle by particle.

Molecule DLMGYIPLV (modifications not checked) [wild-type C7A2 peptide (C7A2-WT)] displayed an FI0.5 in test [1] of 10 µM. DLMGYIPVV (modifications not checked) [C7A2-8V peptide] showed an FI0.5 in test [2] of 15 µM.

(Values after patent US6685944.)
